Bridge positions count the residues as written; N and C are the ends. Square brackets hold non-standard residues; d marks the D form. Primed or numbered codes have the meaning given here. Ends that are not written are not given here. * marks the point of attachment. Tranexamic″ = tranexamic acid, NC[C@H]1CC[C@@H](C(=O)*)CC1; Pro(trans-4-F) = O=C(O)[C@@H]1C[C@@H](F)CN1; Oic = O=C(O)[C@@H]1C[C@@H]2CCCC[C@@H]2N1; Cyclopropylacetic acid = O=C(CC1CC1)*; Cyclobutylacetic = O=C(CC1CCC1)*; NMeI = CC[C@H](C)[C@H](NC)C(=O)O; aIle = CC[C@@H](C)[C@H](N)C(=O)O; tBuAla = CC(C)(C)C[C@H](N)C(=O)O; aThr = C[C@H](O)[C@H](N)C(=O)O; Chg = N[C@H](C(=O)O)C1CCCCC1; Pen = CC(C)(S)[C@H](N)C(=O)O; NMeC = CN[C@@H](CS)C(=O)O; Aib = CC(C)(N)C(=O)O; Sar = CNCC(=O)O
B1: (Tranexamic)-IC+SRS-((tBu)A)-PPI-(Pen)+IP-NH2 (peptide)
peptide: {Tranexamic″}-ICSRS[tBuAla]PPI[Pen]IP-NH2
modifications: disulfide 2-10
SMILES: CC[C@H](C)[C@@H]1NC(=O)[C@@H]2CCCN2C(=O)[C@@H]2CCCN2C(=O)[C@H](CC(C)(C)C)NC(=O)[C@H](CO)NC(=O)[C@H](CCCNC(=N)N)NC(=O)[C@H](CO)NC(=O)[C@@H](NC(=O)[C@@H](NC(=O)[C@H]2CC[C@@H](CN)CC2)[C@@H](C)CC)CSSC(C)(C)[C@@H](C(=O)N[C@H](C(=O)N2CCC[C@H]2C(N)=O)[C@@H](C)CC)NC1=O
B2: AIC+SRSLP-(Oic)-(Chg)-C+IPD-NH2 (peptide)
peptide: AICSRSLP[Oic][Chg]CIPD-NH2
modifications: disulfide 3-11; N-terminus assumed
SMILES: CC[C@H](C)[C@H](NC(=O)[C@H](C)N)C(=O)N[C@H]1CSSC[C@@H](C(=O)N[C@H](C(=O)N2CCC[C@H]2C(=O)N[C@@H](CC(=O)O)C(N)=O)[C@@H](C)CC)NC(=O)[C@H](C2CCCCC2)NC(=O)[C@@H]2C[C@@H]3CCCC[C@@H]3N2C(=O)[C@@H]2CCCN2C(=O)[C@H](CC(C)C)NC(=O)[C@H](CO)NC(=O)[C@H](CCCNC(=N)N)NC(=O)[C@H](CO)NC1=O
B3: (Cyclopropylacetic acid)-IC+SRS-((tBu)A)-PPI-((N-Me)C)+I-NH2 (peptide)
peptide: {Cyclopropylacetic acid}-ICSRS[tBuAla]PPI[NMeC]I-NH2
modifications: disulfide 2-10
SMILES: CC[C@H](C)[C@H](NC(=O)[C@@H]1CSSC[C@H](NC(=O)[C@@H](NC(=O)CC2CC2)[C@@H](C)CC)C(=O)N[C@@H](CO)C(=O)N[C@@H](CCCNC(=N)N)C(=O)N[C@@H](CO)C(=O)N[C@@H](CC(C)(C)C)C(=O)N2CCC[C@H]2C(=O)N2CCC[C@H]2C(=O)N[C@@H]([C@@H](C)CC)C(=O)N1C)C(N)=O
B4: G-((N-Me)I)-C+SRSLPPIC+IPD-OH (peptide)
peptide: G[NMeI]CSRSLPPICIPD-OH
modifications: disulfide 3-11; N-terminus assumed
SMILES: CC[C@H](C)[C@@H]1NC(=O)[C@@H]2CCCN2C(=O)[C@@H]2CCCN2C(=O)[C@H](CC(C)C)NC(=O)[C@H](CO)NC(=O)[C@H](CCCNC(=N)N)NC(=O)[C@H](CO)NC(=O)[C@@H](NC(=O)[C@H]([C@@H](C)CC)N(C)C(=O)CN)CSSC[C@@H](C(=O)N[C@H](C(=O)N2CCC[C@H]2C(=O)N[C@@H](CC(=O)O)C(=O)O)[C@@H](C)CC)NC1=O
B5: G-((N-Me)I)-C+SRSLPPIC+IPd-OH (peptide)
peptide: G[NMeI]CSRSLPPICIP[dD]-OH
modifications: disulfide 3-11; N-terminus assumed
SMILES: CC[C@H](C)[C@@H]1NC(=O)[C@@H]2CCCN2C(=O)[C@@H]2CCCN2C(=O)[C@H](CC(C)C)NC(=O)[C@H](CO)NC(=O)[C@H](CCCNC(=N)N)NC(=O)[C@H](CO)NC(=O)[C@@H](NC(=O)[C@H]([C@@H](C)CC)N(C)C(=O)CN)CSSC[C@@H](C(=O)N[C@H](C(=O)N2CCC[C@H]2C(=O)N[C@H](CC(=O)O)C(=O)O)[C@@H](C)CC)NC1=O
B6: ((N-Me)G)-IC+SRSLPPIC+(allo-I)-PD-NH2 (peptide)
peptide: [Sar]ICSRSLPPIC[aIle]PD-NH2
modifications: disulfide 3-11; N-terminus assumed
SMILES: CC[C@@H](C)[C@H](NC(=O)[C@@H]1CSSC[C@H](NC(=O)[C@@H](NC(=O)CNC)[C@@H](C)CC)C(=O)N[C@@H](CO)C(=O)N[C@@H](CCCNC(=N)N)C(=O)N[C@@H](CO)C(=O)N[C@@H](CC(C)C)C(=O)N2CCC[C@H]2C(=O)N2CCC[C@H]2C(=O)N[C@@H]([C@@H](C)CC)C(=O)N1)C(=O)N1CCC[C@H]1C(=O)N[C@@H](CC(=O)O)C(N)=O
B7: AIC+SR-(allo-T)-LPPIC+IPD-NH2 (peptide)
peptide: AICSR[aThr]LPPICIPD-NH2
modifications: disulfide 3-11; N-terminus assumed
SMILES: CC[C@H](C)[C@H](NC(=O)[C@H](C)N)C(=O)N[C@H]1CSSC[C@@H](C(=O)N[C@H](C(=O)N2CCC[C@H]2C(=O)N[C@@H](CC(=O)O)C(N)=O)[C@@H](C)CC)NC(=O)[C@H]([C@@H](C)CC)NC(=O)[C@@H]2CCCN2C(=O)[C@@H]2CCCN2C(=O)[C@H](CC(C)C)NC(=O)[C@H]([C@H](C)O)NC(=O)[C@H](CCCNC(=N)N)NC(=O)[C@H](CO)NC1=O
B8: Ac-IC+SRS-((tBu)A)-PPI-((N-Me)C)+I-NH2 (peptide)
peptide: Ac-ICSRS[tBuAla]PPI[NMeC]I-NH2
modifications: disulfide 2-10
SMILES: CC[C@H](C)[C@H](NC(=O)[C@@H]1CSSC[C@H](NC(=O)[C@@H](NC(C)=O)[C@@H](C)CC)C(=O)N[C@@H](CO)C(=O)N[C@@H](CCCNC(=N)N)C(=O)N[C@@H](CO)C(=O)N[C@@H](CC(C)(C)C)C(=O)N2CCC[C@H]2C(=O)N2CCC[C@H]2C(=O)N[C@@H]([C@@H](C)CC)C(=O)N1C)C(N)=O
B9: ((N-Me)G)-IC+SRSLPPIC+IPD-OH (peptide)
peptide: [Sar]ICSRSLPPICIPD-OH
modifications: disulfide 3-11; N-terminus assumed
SMILES: CC[C@H](C)[C@H](NC(=O)CNC)C(=O)N[C@H]1CSSC[C@@H](C(=O)N[C@H](C(=O)N2CCC[C@H]2C(=O)N[C@@H](CC(=O)O)C(=O)O)[C@@H](C)CC)NC(=O)[C@H]([C@@H](C)CC)NC(=O)[C@@H]2CCCN2C(=O)[C@@H]2CCCN2C(=O)[C@H](CC(C)C)NC(=O)[C@H](CO)NC(=O)[C@H](CCCNC(=N)N)NC(=O)[C@H](CO)NC1=O
B10: ((N-Me)G)-IC+SRSLPP-(Chg)-C+IPD-NH2 (peptide)
peptide: [Sar]ICSRSLPP[Chg]CIPD-NH2
modifications: disulfide 3-11; N-terminus assumed
SMILES: CC[C@H](C)[C@H](NC(=O)CNC)C(=O)N[C@H]1CSSC[C@@H](C(=O)N[C@H](C(=O)N2CCC[C@H]2C(=O)N[C@@H](CC(=O)O)C(N)=O)[C@@H](C)CC)NC(=O)[C@H](C2CCCCC2)NC(=O)[C@@H]2CCCN2C(=O)[C@@H]2CCCN2C(=O)[C@H](CC(C)C)NC(=O)[C@H](CO)NC(=O)[C@H](CCCNC(=N)N)NC(=O)[C@H](CO)NC1=O
B11: (Cyclobutylacetic)-IC+SRS-((tBu)A)-PPI-(Pen)+IP-NH2 (peptide)
peptide: Cyclobutylacetic-ICSRS[tBuAla]PPI[Pen]IP-NH2
modifications: disulfide 2-10
SMILES: CC[C@H](C)[C@H](NC(=O)CC1CCC1)C(=O)N[C@H]1CSSC(C)(C)[C@@H](C(=O)N[C@H](C(=O)N2CCC[C@H]2C(N)=O)[C@@H](C)CC)NC(=O)[C@H]([C@@H](C)CC)NC(=O)[C@@H]2CCCN2C(=O)[C@@H]2CCCN2C(=O)[C@H](CC(C)(C)C)NC(=O)[C@H](CO)NC(=O)[C@H](CCCNC(=N)N)NC(=O)[C@H](CO)NC1=O
B12: (Tranexamic)-IC+SRS-((tBu)A)-PPI-((N-Me)C)+I-NH2 (peptide)
peptide: {Tranexamic″}-ICSRS[tBuAla]PPI[NMeC]I-NH2
modifications: disulfide 2-10
SMILES: CC[C@H](C)[C@H](NC(=O)[C@@H]1CSSC[C@H](NC(=O)[C@@H](NC(=O)[C@H]2CC[C@@H](CN)CC2)[C@@H](C)CC)C(=O)N[C@@H](CO)C(=O)N[C@@H](CCCNC(=N)N)C(=O)N[C@@H](CO)C(=O)N[C@@H](CC(C)(C)C)C(=O)N2CCC[C@H]2C(=O)N2CCC[C@H]2C(=O)N[C@@H]([C@@H](C)CC)C(=O)N1C)C(N)=O
B13: GIC+SRSLPPIC+I-(Aib)-D-OH (peptide)
peptide: GICSRSLPPICI[Aib]D-OH
modifications: disulfide 3-11; N-terminus assumed
SMILES: CC[C@H](C)[C@H](NC(=O)CN)C(=O)N[C@H]1CSSC[C@@H](C(=O)N[C@H](C(=O)NC(C)(C)C(=O)N[C@@H](CC(=O)O)C(=O)O)[C@@H](C)CC)NC(=O)[C@H]([C@@H](C)CC)NC(=O)[C@@H]2CCCN2C(=O)[C@@H]2CCCN2C(=O)[C@H](CC(C)C)NC(=O)[C@H](CO)NC(=O)[C@H](CCCNC(=N)N)NC(=O)[C@H](CO)NC1=O
B14: ((N-Me)G)-IC+SRSLPPIC+I-((trans-4-Fluoro)P)-D-OH (peptide)
peptide: [Sar]ICSRSLPPICI[Pro(trans-4-F)]D-OH
modifications: disulfide 3-11; N-terminus assumed
SMILES: CC[C@H](C)[C@H](NC(=O)CNC)C(=O)N[C@H]1CSSC[C@@H](C(=O)N[C@H](C(=O)N2C[C@H](F)C[C@H]2C(=O)N[C@@H](CC(=O)O)C(=O)O)[C@@H](C)CC)NC(=O)[C@H]([C@@H](C)CC)NC(=O)[C@@H]2CCCN2C(=O)[C@@H]2CCCN2C(=O)[C@H](CC(C)C)NC(=O)[C@H](CO)NC(=O)[C@H](CCCNC(=N)N)NC(=O)[C@H](CO)NC1=O

The binders below were run against Recombinant human MASP2 enzyme (fragment corresponding to amino acids 297-686, C-terminal His Tag) (human, UniProt O00187 297-686) (assay: cell-based or functional assay).
Sequence of Recombinant human MASP2 enzyme (fragment corresponding to amino acids 297-686, C-terminal His Tag) (O00187 other isoform, or with tags, fused parts or gaps limits assumed): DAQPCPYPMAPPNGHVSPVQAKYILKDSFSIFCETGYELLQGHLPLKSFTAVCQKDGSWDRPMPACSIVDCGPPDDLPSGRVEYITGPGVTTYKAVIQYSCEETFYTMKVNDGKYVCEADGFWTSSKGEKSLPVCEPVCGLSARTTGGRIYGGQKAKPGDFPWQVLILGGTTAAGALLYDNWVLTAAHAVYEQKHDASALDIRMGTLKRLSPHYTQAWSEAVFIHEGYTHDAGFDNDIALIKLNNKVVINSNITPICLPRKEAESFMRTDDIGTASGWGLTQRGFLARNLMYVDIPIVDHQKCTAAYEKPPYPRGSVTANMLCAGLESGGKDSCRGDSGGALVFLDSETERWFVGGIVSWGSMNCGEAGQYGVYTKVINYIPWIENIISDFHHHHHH

First: B1
Second: B2
The “human MASP2 IC50” value of the first is 17-fold lower: 0.017 µM for the first, 0.29 µM for the second.

Compared with B3, B4 is 20-fold higher in “human MASP2 IC50” value: 0.055 µM for the first, 1.1 µM for the second.

Compared with B5, B6 is 7.6-fold lower in “human MASP2 IC50” value: 1.3 µM for the first, 0.17 µM for the second.

Compared with B7, AICSRS[3‑(Trimethylsilyl)‑L‑alanine]P[Oic]I[NMeC]IPD-NH2 (disulfide 3-11) [AIC+SRS-(3-(Trimethylsilyl)-L-alanine)-P-(Oic)-I-((N-Me)C)+IPD-NH2] is 3.3-fold higher in “human MASP2 IC50” value: 0.33 µM for the first, 1.1 µM for the second.

Going from B8 to B9, the “human MASP2 IC50” value rises from 0.061 µM to 0.535 µM (8.8-fold).

Going from B10 to B11, the “human MASP2 IC50” value falls from 0.891 µM to 0.0093 µM (96-fold).

Going from B12 to B13, the “human MASP2 IC50” value rises from 0.026 µM to 0.16 µM (6.2-fold).

B14 was tested, and the “human MASP2 IC50” value was 0.49 µM.

Each binder was assayed against T1, Recombinant human MASP1 enzyme (fragment corresponding to amino acids 297-699, C-terminal His Tag) (human, UniProt P48740 297-699) (assay: cell-based or functional assay).
T1 sequence: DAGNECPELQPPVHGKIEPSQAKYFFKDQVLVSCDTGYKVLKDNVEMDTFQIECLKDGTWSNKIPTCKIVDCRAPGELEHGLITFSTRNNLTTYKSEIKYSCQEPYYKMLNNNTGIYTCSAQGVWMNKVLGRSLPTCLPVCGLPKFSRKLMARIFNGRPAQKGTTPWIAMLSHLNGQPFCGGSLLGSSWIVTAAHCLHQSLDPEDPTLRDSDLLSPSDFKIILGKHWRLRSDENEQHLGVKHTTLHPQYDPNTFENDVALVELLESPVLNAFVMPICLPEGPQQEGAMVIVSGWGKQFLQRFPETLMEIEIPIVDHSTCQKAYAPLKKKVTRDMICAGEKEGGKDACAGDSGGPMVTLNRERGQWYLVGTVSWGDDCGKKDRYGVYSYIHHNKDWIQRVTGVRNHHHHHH

B1 and B2 are the same in “human MASP1 IC50” value: 0.012 µM for the first, 0.012 µM for the second.

B3 and B4 are within 1.5-fold of each other in “human MASP1 IC50” value: 0.013 µM for the first, 0.014 µM for the second.

B5 and B6 are the same in “human MASP1 IC50” value: 0.014 µM for the first, 0.014 µM for the second.

B7 and AICSRS[3‑(Trimethylsilyl)‑L‑alanine]P[Oic]I[NMeC]IPD-NH2 (disulfide 3-11) [AIC+SRS-(3-(Trimethylsilyl)-L-alanine)-P-(Oic)-I-((N-Me)C)+IPD-NH2] are the same in “human MASP1 IC50” value: 0.014 µM for the first, 0.014 µM for the second.

B8 and B9 are within 1.5-fold of each other in “human MASP1 IC50” value: 0.014 µM for the first, 0.015 µM for the second.

B10 and B11 are the same in “human MASP1 IC50” value: 0.015 µM for the first, 0.015 µM for the second.

B12 and B13 are within 1.5-fold of each other in “human MASP1 IC50” value: 0.015 µM for the first, 0.016 µM for the second.

In the case of B14, the “human MASP1 IC50” value is reported as 0.016 µM.

— patent US20210246166A1 (Bayer, published 2021)
